The record followed here is patent US20240158515A1 (Regeneron, published 2024).

A word on the Kd: it is the free concentration of one partner at which half of the binding sites on the other are occupied at equilibrium, for simple one-to-one binding. A high value points to lower affinity. In general, koff refers to the rate constant with which the complex falls apart. Higher therefore signals fast dissociation. Usually kon stands for a measure of how fast the partners come together. A higher kon goes with fast association. The t½ is the time in which the quantity being followed falls by half. Higher therefore signals slow decline. As a reminder, the IC50 is the point on the concentration scale where inhibition reaches its midpoint.

In test [1] the target is T1, human FGFR3b expressed with a C-terminal murine Fc tag (hFGFR3b.mFc) (human).
T1 construct: called dimeric; also called REGN3153; dimeric human FGFR3b
T1 chain: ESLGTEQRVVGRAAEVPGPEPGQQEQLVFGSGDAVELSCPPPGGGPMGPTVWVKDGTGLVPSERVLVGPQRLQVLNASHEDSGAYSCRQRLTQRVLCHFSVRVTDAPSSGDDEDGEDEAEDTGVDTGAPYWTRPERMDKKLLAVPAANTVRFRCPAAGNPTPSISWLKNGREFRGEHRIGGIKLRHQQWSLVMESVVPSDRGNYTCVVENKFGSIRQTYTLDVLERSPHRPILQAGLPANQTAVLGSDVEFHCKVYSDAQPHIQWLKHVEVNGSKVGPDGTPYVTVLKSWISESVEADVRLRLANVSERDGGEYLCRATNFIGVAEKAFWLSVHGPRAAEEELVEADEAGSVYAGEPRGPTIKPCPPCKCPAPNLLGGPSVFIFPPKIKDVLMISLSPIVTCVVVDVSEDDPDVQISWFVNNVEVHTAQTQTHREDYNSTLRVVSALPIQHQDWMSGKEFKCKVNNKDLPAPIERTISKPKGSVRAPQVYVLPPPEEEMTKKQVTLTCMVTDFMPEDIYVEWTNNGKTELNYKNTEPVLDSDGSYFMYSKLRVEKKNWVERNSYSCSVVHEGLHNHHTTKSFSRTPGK
In words: SPR Biacore, mAb captured on anti-hFc, 25C. A general note: Surface plasmon resonance follows binding to a sensor surface in real time, without labels.

For test [2], the target named is T1, human FGFR3b expressed with a …. Briefly: competition ELISA: 4 nM hFGFR3b-mFc binding to plate-coated hFGF acidic.
Test [3] has as its target full length human FGFR3b S249C on BaF3 cells (BAF3/FGFR3b_S249C, ACL11986) (human, UniProt P22607 23-808). Briefly: cell-based or functional assay.
The target in test [4] is full length human FGFR3b S249C/V557L on BaF3 cells (human, UniProt P22607 23-808). Briefly: cell-based or functional assay.
The target of test [5] is full length human FGFR3b S249C/V557M on BaF3 cells (human, UniProt P22607 23-808). In words: cell-based or functional assay.

B1: H4H30063P (antibody, human IgG4 S228P, kappa, V domains shown)
VH: QVQLQESGPGLVKPSETLSLTCTVSGDSINSYFWSWIRQLPGKELEWIGHIYSSGSTRYNPSLQSRVTISIDTSKNQFSLKLSSVTAADTAVYYCARGASAVDYWGQGTLVTVSS
VL: EIVLTQSPGTLSLSPGERATLSCRTSQSISSGYLAWYQQKPGQAPRLLIYGASRRATGIPDRFSGSGSGTDFTLTISRLEPEDFVVYYCQQYGSSPYTFGQGTKLEIKR
notes: HCVR 2, LCVR 10; also called REGN15684
As for B1, in test [1], the “30 nM hFGFR3b.mFc Bind (RU)” value worked out at 296 RU, the Kd is not above 0.0226 nM, the koff is not above 1e-05 s⁻¹ and the kon turned out to be 442000 M⁻¹ s⁻¹. In addition, the “t½” value in test [1] was not below 19.2 h. Also, in test [2], the “% Blocking at 200 nM mAb” value was 95% and the IC50 stood at 2 nM. Also, the “IC50, growth of BaF3 cells expressing FGFR3 S249C (CellTiter-Glo)” value in test [3] was determined as 1.36 nM. Besides, in test [4], the “IC50, growth of BaF3 cells expressing FGFR3 S249C/V557L (CellTiter-Glo)” value amounted to 4.3 nM. Besides, in test [5], the “IC50, growth of BaF3 cells expressing FGFR3 S249C/V557M (CellTiter-Glo)” value came out at 3.9 nM.
